Drawing on the FLAb antibody collection (doi:10.7554/elife.23156), this text covers Kd and yeast surface expression for 58 variants.

B1: scFv; the commonest letter at each place (parent)
chain 1: EVKLDETGGGLVQPGRPMKLSCVASGFTFSDYWMNWVRQSPEKGLEWVAQIRNKPYNYETYYSDSVKGRFTISRDDSKSSVYLQMNNLRVEDMGIYYCTGSYYGMDYWGQGTSVTVS
chain 2: DVVMTQTPLSLPVSLGDQASISCRSSQSLVHSNGNTYLRWYLQKPGQSPKVLIYKVSNRFSGVPDRFSGSGSGTDFTLKISRVEAEDLGVYFCSQSTHVPWTFGGGTKLEIK

Where only a bound is given, the exact number is not on record here.

Variants of B1 are the subject of the series “fluorescein”. Put plainly: Kd (Tite-Seq). Particulars: with fluorescein; format: scFv 4-4-20, heavy + light.
The variants in series [1] derive from B1. Description: yeast surface expression (ratio to wild type); higher = more expressed. Particulars: format: scFv 4-4-20, heavy + light.

With chain 1 G104Q Y107G W108I, in the series with fluorescein, the Kd is no less than 10 µM. Also, the yeast surface expression in series [1] was determined as 0.271.

For the variant chain 1 T28H D31K, in the series with fluorescein, the Kd was found to be 0.00606 µM. Further, the yeast surface expression in series [1] amounted to 0.589.

For chain 1 W33N M34F, in the series with fluorescein, the Kd is no less than 10 µM. For the same variant, in series [1], the yeast surface expression is 0.815.

Take chain 1 G100N Y102Q: in the series with fluorescein, the Kd is no less than 10 µM. For the same variant, the yeast surface expression in series [1] amounted to 0.746.

In the case of chain 1 F29A S30V, the Kd with fluorescein is 3.94 µM. Also, the yeast surface expression in series [1] turned out to be 0.758.

Regarding chain 1 Y103A G104A, in the series with fluorescein, the Kd was no less than 10 µM. For the same variant, the yeast surface expression in series [1] is 0.911.

On to chain 1 M105P W108E G109W, for which the Kd with fluorescein was no less than 10 µM. Also, in series [1], the yeast surface expression came to 0.297.

Regarding chain 1 W33G V37Y, the Kd with fluorescein is no less than 10 µM. Further, the yeast surface expression in series [1] was 0.672.

In the case of chain 1 W33M V37E, in the series with fluorescein, the Kd came to 0.0657 µM. Further, in series [1], the yeast surface expression was 0.701.

For the variant chain 1 G104L M105G Y107F, the Kd in the series with fluorescein was no less than 10 µM. For the same variant, the yeast surface expression in series [1] is 0.414.

Consider chain 1 G100C W108L, for which, in the series with fluorescein, the Kd is 0.000389 µM. In series [1], the yeast surface expression came out at 0.653.

Turning to chain 1 S101M W108G, in the series with fluorescein, the Kd was no less than 10 µM. For the same variant, the yeast surface expression in series [1] came to 0.228.

Take chain 1 Y32K M34C: in the series with fluorescein, the Kd is no less than 10 µM. Besides, in series [1], the yeast surface expression came out at 0.91.

chain 1 S30T N35Q: the Kd in the series with fluorescein is no less than 10 µM. In addition, the yeast surface expression in series [1] came to 0.831.

Turning to chain 1 Y102S Y103C, in the series with fluorescein, the Kd was 0.0125 µM. In addition, the yeast surface expression in series [1] was found to be 0.707.

As for chain 1 M105H W108D, the Kd in the series with fluorescein was no less than 10 µM. For the same variant, the yeast surface expression in series [1] is 0.353.

Turning to chain 1 W36Q, the Kd with fluorescein was no less than 10 µM. Besides, the yeast surface expression in series [1] is 0.308.

Regarding chain 1 W36F, the Kd with fluorescein was 0.0015 µM. For the same variant, the yeast surface expression in series [1] stood at 0.954.

Consider unchanged, for which the Kd with fluorescein turned out to be 0.00135 µM. In addition, in series [1], the yeast surface expression was determined as 1.

Turning to chain 1 S101R W108V, the Kd in the series with fluorescein is no less than 10 µM. Besides, in series [1], the yeast surface expression amounted to 0.24.

In the case of chain 1 Y103K G104I, the Kd in the series with fluorescein is no less than 10 µM. In addition, in series [1], the yeast surface expression was 0.711.

For chain 1 G100S M105Q D106N, the Kd in the series with fluorescein was no less than 10 µM. The yeast surface expression in series [1] was 0.522.

In the case of chain 1 Y107M, in the series with fluorescein, the Kd was 0.0372 µM. For the same variant, the yeast surface expression in series [1] stood at 0.921.

Take chain 1 Y107T: in the series with fluorescein, the Kd was found to be 0.000784 µM. In addition, the yeast surface expression in series [1] was 0.965.

On to chain 1 S30M D31S, for which the Kd with fluorescein came out at 0.00265 µM. Besides, the yeast surface expression in series [1] is 0.671.

Consider chain 1 F29R V37N, for which the Kd in the series with fluorescein is no less than 10 µM. Also, the yeast surface expression in series [1] is 0.445.

For the variant chain 1 S30Y D31A N35A, the Kd with fluorescein is no less than 10 µM. The yeast surface expression in series [1] turned out to be 0.451.

Turning to chain 1 Y107E W108E, in the series with fluorescein, the Kd was no less than 10 µM. Moreover, in series [1], the yeast surface expression turned out to be 0.485.

Take chain 1 G100S D106C: the Kd with fluorescein was no less than 10 µM. In addition, in series [1], the yeast surface expression was found to be 1.03.

Consider chain 1 S30G W36L, for which the Kd with fluorescein is no less than 10 µM. For the same variant, the yeast surface expression in series [1] was 0.597.

Turning to chain 1 Y32P V37Y, the Kd in the series with fluorescein is no less than 10 µM. Further, the yeast surface expression in series [1] was determined as 0.716.

With chain 1 W33E, in the series with fluorescein, the Kd is no less than 10 µM. Also, in series [1], the yeast surface expression is 1.05.

On to chain 1 W33A, for which the Kd in the series with fluorescein is no less than 10 µM. In series [1], the yeast surface expression was 0.883.

Regarding chain 1 T28P Y32D W36I, the equilibrium dissociation constant (Kd) with fluorescein is no less than 10 µM. Moreover, the yeast surface expression in series [1] stood at 0.789.

Take chain 1 Y103L M105I: the Kd in the series with fluorescein was no less than 10 µM. Also, in series [1], the yeast surface expression worked out at 0.741.

With chain 1 W33Y M34I, in the series with fluorescein, the Kd was no less than 10 µM. The yeast surface expression in series [1] stood at 0.771.

Turning to chain 1 Y103D Y107N, the Kd in the series with fluorescein was 1.26 µM. Further, the yeast surface expression in series [1] was 1.12.

Take chain 1 S30W Y32Q: the Kd with fluorescein is no less than 10 µM. Besides, the yeast surface expression in series [1] was determined as 0.646.

Consider chain 1 Y102V D106I, for which the Kd with fluorescein is no less than 10 µM. For the same variant, the yeast surface expression in series [1] came to 0.421.

As to chain 1 T28C Y32P, the Kd with fluorescein was no less than 10 µM. Also, in series [1], the yeast surface expression came to 0.707.

For the variant chain 1 T28K W33M, the Kd with fluorescein was no less than 10 µM. Moreover, the yeast surface expression in series [1] was 1.03.

Consider chain 1 G100M Y102V, for which the Kd in the series with fluorescein is no less than 10 µM. Besides, the yeast surface expression in series [1] was 0.856.

In the case of chain 1 F29G N35I, the Kd with fluorescein is no less than 10 µM. Besides, the yeast surface expression in series [1] worked out at 0.645.

Regarding chain 1 T28P, the Kd with fluorescein was determined as 0.000743 µM. Moreover, the yeast surface expression in series [1] was 0.989.

For chain 1 T28A, in the series with fluorescein, the Kd is 0.00158 µM. Moreover, in series [1], the yeast surface expression stood at 1.01.

As for chain 1 Y103T, the Kd with fluorescein was found to be 2.35 µM. In series [1], the yeast surface expression was 0.896.

With chain 1 Y103M, the Kd in the series with fluorescein is 0.0015 µM. The yeast surface expression in series [1] turned out to be 1.27.

In the case of chain 1 M105V W108A, the Kd with fluorescein is no less than 10 µM. The yeast surface expression in series [1] was found to be 0.434.

Take chain 1 S30H W33A: the Kd in the series with fluorescein was no less than 10 µM. In addition, the yeast surface expression in series [1] is 0.733.

With chain 1 M105W Y107C, the Kd with fluorescein was no less than 10 µM. Moreover, in series [1], the yeast surface expression is 0.264.

As for chain 1 M34L N35T, in the series with fluorescein, the Kd is no less than 10 µM. For the same variant, in series [1], the yeast surface expression stood at 0.824.

As for chain 1 G100Y Y103C, the Kd with fluorescein was no less than 10 µM. For the same variant, the yeast surface expression in series [1] amounted to 0.567.

As to chain 1 F29A V37S, the Kd in the series with fluorescein was no less than 10 µM. Moreover, the yeast surface expression in series [1] was found to be 0.545.

As to chain 1 G100Y G104C, the Kd in the series with fluorescein is no less than 10 µM. Moreover, the yeast surface expression in series [1] was 0.183.

Consider chain 1 Y103A G104Y G109T, for which the Kd with fluorescein is no less than 10 µM. The yeast surface expression in series [1] was 0.211.

chain 1 D31E W33C: the Kd with fluorescein was no less than 10 µM. Moreover, the yeast surface expression in series [1] worked out at 0.827.

As for chain 1 G104L W108G, the Kd with fluorescein was no less than 10 µM. Moreover, the yeast surface expression in series [1] turned out to be 0.178.

On to chain 1 G100E Y107H, for which, in the series with fluorescein, the Kd was no less than 10 µM. The yeast surface expression in series [1] worked out at 0.501.

Usually Kd stands for the concentration at which binding is half-saturated.
